Results published in patent publication US20120141476A1 (MacroGenics, published 2012).
Changes are numbered by the printed parent chain. Names may count otherwise.

B1: ch2B6HC/ch2B6LC mAb (chimeric 2B6) (antibody, V domains shown)
VH: QVQLQQPVTELVRPGASVMLSCKASDYPFTNYWIHWVKQRPGQGLEWIGVIDPSDTYPNYNKKFKGKATLTVVVSSSTAYMQLSSLTSDDSAVYYCARNGDSDYYSGMDYWGQGTSVTVSS
VL: DILLTQSPAILSVSPGERVSFSCRTSQSIGTNIHWYQQRTNGFPRLLIKNVSESISGIPSRFSGSGSGTDFILSINSVESEDIADYYCQQSNTWPFTFGGGTKLEIK
notes: Tested as conditioned medium of transfected HEK-293 cells; also called ch2B6 mAb; chimeric mAb
B2: hu2B6HC/hu2B6LC(N50Y) (antibody, V domains shown)
VH: QVQLVQSGAEVKKPGASVKVSCKASGYTFTNYWIHWVRQAPGQGLEWMGVIDPSDTYPNYNKKFKGRVTMTTDTSTSTAYMELRSLRSDDTAVYYCARNGDSDYYSGMDYWGQGTTVTVSS
VL: EIVLTQSPDFQSVTPKEKVTITCRTSQSIGTNIHWYQQKPDQSPKLLIKYVSESISGVPSRFSGSGSGTDFTLTINSLEAEDAATYYCQQSNTWPFTFGGGTKVEIK
notes: Human C-Gamma1 and C-kappa constant regions; also called Hu2B6N50Y; Hu2B6 N50Y
B3: hu2B6HC/hu2B6LC mAb (humanized 2B6) (antibody, V domains shown)
VH: B2 VH
VL: B2 VL with Y50N
notes: Human C-Gamma1 and C-kappa constant regions
B4: hu2B6HC/hu2B6LC(N50Y,V51A) (antibody, V domains shown)
VH: B2 VH
VL: B2 VL with V51A
notes: Human C-Gamma1 and C-kappa constant regions; also called Hu2B6N50Y,V51A; Hu2B6N50Y, V51A

Key:
[1] = biological target: T1, FcγRIIB (CD32B) on Daudi cells (human, UniProt P31994 43-310); test: FACS on Daudi cells, antibody at 0.1 µg/ml
T1 construct: whole, on cells; also called this human B cell tumor line
T1 sequence (looked up): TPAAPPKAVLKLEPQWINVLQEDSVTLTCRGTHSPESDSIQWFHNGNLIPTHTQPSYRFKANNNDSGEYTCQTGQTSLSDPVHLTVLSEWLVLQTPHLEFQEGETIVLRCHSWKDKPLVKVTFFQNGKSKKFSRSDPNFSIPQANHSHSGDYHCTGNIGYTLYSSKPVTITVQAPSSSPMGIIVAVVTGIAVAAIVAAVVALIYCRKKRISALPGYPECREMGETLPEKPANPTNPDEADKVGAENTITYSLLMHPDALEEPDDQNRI
Protocol: (§1) Protocol for FACS analysis. Approximately 10⁶ Daudi cells were used for each antibody staining Cells were washed once with PBS. Primary antibodies (Ch2B6, Hu2B6Hc/ch2B6Lc, human IgG1 ) were diluted into 0.5, 0.1, 0.02 μg/mL in PBS/1% BSA and 100 μL of diluted antibodies was transferred to the cells. After 30 mins incubation at 4° C., cells were washed once with 1 mL PBS/1% BSA. PE conjugated F(ab′)₂ fragment of goat anti human IgG Fc specific (Jackson ImmunoReseach, Inc.) was used as secondary antibody at 1:1000 dilution. After 30 mins incubation at 4° C., cells were washed once with 1 mL PBS/1% BSA. The cells were then resuspended in 500 μL of PBS/1% BSA and subjected to be FACS analysis.
(§2) Transfections of HEK-293 cells were performed using the following combinations: hu2B6HC/hu2B6LC; hu2B6HC/hu2B6LC(N50Y); hu2B6HC/hu2B6LC(N50Y,V51A); ch2B6HC/ch2B6LC. After three days in culture the amount of human IgG expressed was quantitated by an ELISA assay, using the method described above. Binding to dimeric soluble FcγRIIb-Fc was determined by ELISA assay. […] FACS analysis was then performed to measure the binding of the mAbs to Daudi cells (Table 8).

[2] = biological target: T1, FcγRIIB (CD32B) on Daudi cells; test: FACS on Daudi cells, antibody at 0.5 µg/ml
Protocol: as §1, §2

[3] = biological target: T1, FcγRIIB (CD32B) on Daudi cells; test: FACS on Daudi cells, antibody at 0.02 µg/ml
Protocol: as §1, §2

[4] = biological target: T2, dimeric soluble FcγRIIa-Fc (UniProt P12318 34-217); test: ELISA, 100 ng/well soluble FcγIIA coated
T2 construct: also called soluble FcγIIA; FcγIIA
T2 sequence (looked up): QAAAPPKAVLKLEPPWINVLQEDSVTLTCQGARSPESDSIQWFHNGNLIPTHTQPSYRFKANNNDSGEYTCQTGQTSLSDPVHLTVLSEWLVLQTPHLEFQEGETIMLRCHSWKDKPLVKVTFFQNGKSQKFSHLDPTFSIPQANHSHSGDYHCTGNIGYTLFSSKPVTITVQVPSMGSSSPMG
Protocol: Protocal for ELISA assay: 100 ng/well of soluble FcγIIA in carbonate buffer was coated on 96-well Maxisorp plates at 4° C. overnight. A serial of two-fold dilution of conditioned medium of Ch2B6; hu2B6HC/hu2B6LC; hu2B6HC/hu2B6LC(N50Y); hu2B6HC/hu2B6LC(N50Y,V51A); and purified IV.3 starting from 25 ng/well was added to the each well. The plate was incubated at room temperature for 1 hour. The binding was detected by HRP conjugated F(ab′)2 goat anti human IgG F(ab′)2 specific secondary antibody for Ch2B6 and all hu2B6 samples and HRP conjugated F(ab′)2 goat anti mouse IgG (H+L) secondary antibody for IV.3. After incubation with the secondary antibody for approximately 45 minutes, the plate was developed using a TMB substrate. After 5 mins incubation, the reaction was stopped by 1% H₂SO₄. The OD₄₅₀ nm was ready by SOFTmax program. Between each step, the plates were washed 3 times with PBS/0.1% Tween 20. The plates were blocked by 0.5% BSA in PBS/0.1% Tween 20 for 30 mins at room temperature before adding the serial diluted antibodies.

Row | Binder | Mean Fluorescence [1] | Mean Fluorescence [2] | Mean Fluorescence [3] | binding result [4]
1 | B1 | 141 | 193 | 45.6 | –
2 | B2 | – | – | – | no binding
3 | B3 | – | – | – | no binding
4 | B4 | – | – | – | no binding
